The supplement of paper PMC9170038

System: MS2 coat protein
Test: apparent KD of MS2 coat protein; designed switch direction (-1 OFF switch, 1 ON switch): -1; higher = weaker reporter binding
In short: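 Designed RNA switches with common flanks were transcribed on Illumina chips by stalled E. coli RNA polymerase and titrated with SNAP-549-labelled MS2 coat protein, from 0.7 or 1.5 nM doubling to 3 µM, in Tris-HCl pH 7.5 buffer with KCl, MgCl2, BSA, DTT, tRNA and Tween-20. Steps lasted 0.8–1.5 h (lowest) to 10–20 min (highest). Titrations ran without input, with 200 uM small-molecule ligand, or with an oligonucleotide input. Normalised cluster fluorescence was curve-fitted, and apparent KD is the per-design median over clusters.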

[1] = Eterna round: R95, input ligand: FMN 200 uM
[2] = Eterna round: R95, input ligand: microRNA oligo, concentration not stated
[3] = Eterna round: R95, input ligand: none
[4] = input ligand: microRNA oligo, concentration not stated

| Sequence | apparent KD of MS2 coat protein [2] [nM] | apparent KD of MS2 coat protein (input ligand: FMN 200 uM) [nM] | apparent KD of MS2 coat protein (input ligand: none) [nM] | further results |
| --- | --- | --- | --- | --- |
| CCCAGGGCAGGAUAUAGAGGGCGAAACAUGAGGAUCACCCAUGUGACCUCGGAACAGCUGCUAGAAGGGCCAAAUU [Beesquti] (puzzle: Exclusion 5) | 14.8 |  |  | apparent KD of MS2 coat protein [1]: 21.1 nM; apparent KD of MS2 coat protein [3]: 15.3 nM |
| CCCAGUUACGUAGGAUAUUGUACAUGAGGAUCACCCAUGUAAUAAAUGAGGAUUUCGGGUGUCUACAAGAAGGACGGGAUAGGC [Ostracism 17 - Jieux - Exclusion NG 2] (Eterna round: R96, puzzle: Exclusion NG 2) |  | 186 | 93 | apparent KD of MS2 coat protein [4]: 80.6 nM |
| CCCAGUUAUUGAGGAUAUUGUACAUGAGGAUCACCCAUGUAAUAAAUGAGGAUUUCGGGUGUCUACAAGAAGGCAAGGAUAGGC [Ostracism 20 - Jieux - Exclusion NG 2] (Eterna round: R96, puzzle: Exclusion NG 2) |  | 54.6 | 46.8 | apparent KD of MS2 coat protein [4]: 46.1 nM |
| CCCAUGUCAGGAUAUUAGAUACUGCCUCAAAACAAAGGCAUUGAGAAGGGACAUGAGGAUCACCCAUGUAAAAC [Leissobima] (Eterna round: R97, puzzle: Exclusion 4) |  | 59.5 | 183 |  |
| CCCGUGUGAGGAUAUCCCUCCACAGUACGAAUCGACCCGUGGGAGAAGGCACAUGAGGAUCACCCAUGUGAACG [Eternabot (Original) Solution 30] (Eterna round: R97, puzzle: Exclusion 4) |  | 42.5 | 32.8 |  |
| CCCUCACAUGAGGAUCACCCAUGUCAGGAUAUCUAGUCAGACAGUGUAGCACUGCUGAAGAGAAGGGACGUAAA [Isinzare] (puzzle: Exclusion 1) | 15.9 |  |  |  |
| CCCUCACAUGAGGAUCACCCAUGUCAGGAUAUUCGAACGGUGUGUUUUUGGCCAGUUGGAAGAAGGGACAUAAA [Riinesbe] (Eterna round: R96, puzzle: Exclusion 1) |  | 278 | 32.2 | apparent KD of MS2 coat protein [4]: 29 nM |
| CCCUCACAUGAGGAUCACCCAUGUCAGGAUAUUCGAACGGUGUGUUUUUGGCCAGUUGGAAGAAGGGACAUAAA [Riinesbe] (puzzle: Exclusion 1) | 36.2 |  |  |  |
| CCCUCACAUGAGGAUCACCCAUGUCAGGAUAUUCGAGGCGCAAAUACGCCAAAUGCAGGAAGAAGGGACGUGCC [Ususzalaxe] (puzzle: Exclusion 1) | 13.5 |  |  |  |
| CCGACUCAAGGAUAUUGUACUGCUGACAUGAGGAUCACCCAUGUGUCCUGACGCGGACGACGAGAAGGUGACGACA [Eternabot (Original) Solution 44] (Eterna round: R97, puzzle: Exclusion 5) |  | 981 | 292 |  |
| CCGAGCAUAUGAGGAUCAGACAUGAGGAUCACCCAUGUGCUCCGUCGAAGGAAUAAUCAUAAUGCUGGCUCGUCGUG [Eternabot (L2) Solution 6] (Eterna round: R97, puzzle: Sensor, turn-off variant 1) |  | 555 | 457 |  |
| CCGAGGUAGCGGUCCUAUGACAUGAGGAUCACCCAUGUACCUCGCUACGAGCUUUUUGCUCGUCAUAUAAUUCUCGG [Mat - Sensor v3 - turn-off var 1 - JL Mod - D30] (Eterna round: R96, puzzle: Sensor v3, turn-off variant 1) |  | 56.8 | 61.3 | apparent KD of MS2 coat protein [4]: 49.7 nM |
| CCGAGGUAGCGGUCCUAUGACAUGAGGAUCACCCAUGUACCUCGCUACGAGCUUUUUGCUCGUCAUAUAAUUCUCGG [Mat - Sensor v3 - turn-off var 1 - JL Mod - D30] (puzzle: Sensor v3, turn-off variant 1) | 57.9 |  |  | apparent KD of MS2 coat protein [1]: 45.4 nM; apparent KD of MS2 coat protein [3]: 66.3 nM |
| CCGAGGUGGCGGUCCUAUGACAUGAGGAUCACCCAUGUACCUCGCCACAAGCUUUUUGCUCAUCUUAUAAUUCUCGG [Gelelebius] (puzzle: Sensor v3, turn-off variant 1) | 117 |  |  | apparent KD of MS2 coat protein [1]: 18 nM; apparent KD of MS2 coat protein [3]: 16.1 nM |
| CCGAUAAUGUAGGAUAUCGUAUCGGAAACGAUACGAGAAGGACAAACAUGAGGAUCACCCAUGUUCCUUAACGG [Mat - Exclusion 6 - Eli Mod - D73] (puzzle: Exclusion 6) | 15 |  |  |  |
| CCGAUGUGAGGAUAUACACUAGGGUGCGUAUACGUGAGCAAACAUGAGGAUCACCCAUGUAGAAGGCACUGAAA [Eternabot (Original) Solution 50] (Eterna round: R97, puzzle: Exclusion 2) |  | 117 | 30.9 |  |
| CCGCAAAAGCAGGAUAUCGUAUCGGAUACGAUACGAGAAGGGUUUACAUGAGGAUCACCCAUGUUCCUUAGCGG [Fiskers Ex 6 - 32] (puzzle: Exclusion 6) | 26.8 |  |  |  |

| Sequence | apparent KD of MS2 coat protein [2] [nM] | apparent KD of MS2 coat protein (input ligand: FMN 200 uM) [nM] | apparent KD of MS2 coat protein (input ligand: none) [nM] | further results |
| --- | --- | --- | --- | --- |
| CCGCAUAAGCAGGAUAUCGUAUCGGAGACGAUACGAGAAGGGUUAACAUGAGGAUCACCCAUGUUCCUUAACGG [Mat - Exclusion 6 - Eli Mod - D99] (puzzle: Exclusion 6) | 14.1 |  |  | apparent KD of MS2 coat protein [1]: 19.7 nM; apparent KD of MS2 coat protein [3]: 18.1 nM |
| CCGCCAUGAGGAUAUCCAUCUGGAUCAGACAAGAUCCUGAUGGAGAAGGGACAUGAGGAUCACCCAUGUUGCGG [Mat - Exclusion 4 - Eli Mod - D55] (Eterna round: R97, puzzle: Exclusion 4) |  | 60.4 | 60 |  |
| CCGCCGCAAGGAUAUACUUGCGGUGAUGUUCGAGUUCUUCUACUUGAGGAUCACCCAAGUAGAAGGUGCAAAAC [jl-ex2.4.59 ViennaUCT mod] (Eterna round: R97, puzzle: Exclusion 2) |  | 13 | 12.5 |  |
| CCGCUCCGUGUAGGAUAUCGCUGUACCCUGCGGCGAGAAGGACAUGAGGAUCACCCAUGUAUGUUAUUAUCACGCGUGGCGCAC [Design 72] (Eterna round: R96, puzzle: Exclusion NG 1) |  | 16 | 16.4 | apparent KD of MS2 coat protein [4]: 12.4 nM |
| CCGCUCCGUGUAGGAUAUUGGCGUGCUCUGCGCCGAGAAGGACAUGAGGAUCACCCAUGUAUGUUAUUAUCACGCGUGGCGCAU [Design 78] (Eterna round: R96, puzzle: Exclusion NG 1) |  | 30.6 | 18.6 | apparent KD of MS2 coat protein [4]: 11.5 nM |
| CCGGAAGUACAGGAUAUAGGAGUCGAUAGACUCCUAGAAGGGUAUACAUGAGGAUCACCCAUGUGUCCUACCGG [Fiskers Ex 6 - 71] (puzzle: Exclusion 6) | 23.6 |  |  |  |
| CCGGGCCCGGGAGGAUAUACAUGAGGAUCACCCAUGUGGGCCCGGGCCCGCGGGCCCGGGCCCAUGUAGAAGGCCCGGGCCCGG [-64.8, -64.2 kcal, A 15%] (Eterna round: R96, puzzle: Exclusion NG 2) |  | 50 | 20.4 | apparent KD of MS2 coat protein [4]: 36.4 nM |
| CCGGGCGCAGGAUAUACGUGGCCCAAAUAAAUAAUAACCACACAUGAGGAUCACCCAUGUAGAAGGGCGCCCGG [-26.59, -25.61 kcal, A 32%] (Eterna round: R97, puzzle: Exclusion 2) |  | 116 | 49.9 |  |
| CCGGUAGUAGUCAGGAUAUUCGAUUUUCACCAAGCGAAGAAGGGACAUGAGGAUCACCCAUGUUAGGUGAACGG [Eternabot (L2) Solution 68] (Eterna round: R97, puzzle: Brourd's mod of Exclusion 4) |  | 196 | 37.6 |  |
| CCGUCCUCAGUUAGGAUAUCUUCCGGAGAACGAAAGGAGAAGGAACAUGAGGAUCACCCAUGUGGCCCGAUGGA [Eternabot (Original) Solution 16] (Eterna round: R97, puzzle: Brourd's mod of Exclusion 4) |  | 85.3 | 29.3 |  |
| CCGUGGCAAGGAUAUACGUAGGAGAGGAAGGCAAGAGAAGGACAUGAGGAUCACCCAUGUAGAAGGUGCAGAUC [JR_Exclu2_Sub030] (puzzle: Exclusion 2) | 48.3 |  |  |  |
| CCUAGUUGGUAAGGAUAUCCUACAUUAUUCUGACCCGUGCAAGCUACAUGAGGAUCACCCAUGUGGGAGAAGGUGCGUUAACGU [Design 8] (Eterna round: R96, puzzle: Exclusion NG 2) |  | 55.7 | 55.1 | apparent KD of MS2 coat protein [4]: 35.2 nM |
| CCUCAGUAAGGAUAUCAGCUUAUAAGGUUGGUAAUGAGAGCUGAGAAGGUACAUGAGGAUCACCCAUGUUAGUU [JL Zatite mod 6] (puzzle: Exclusion 4) | 26.7 |  |  |  |
| CCUCAGUAAGGAUAUCAGCUUAUAGAGUUGGUAAUGAGAGCUGAGAAGGUACAUGAGGAUCACCCAUGUUAGUU [JL Zatite mod 3] (puzzle: Exclusion 4) | 23.5 |  |  |  |
| CCUCCCGCCGUCAGGAUAUGCCGUACCGCUGCGCUACAGAAGGCACUUGAGGAUCACCCAAGUACCCGUGAGGC [salish99_bmod_ex4_r4_010] (Eterna round: R97, puzzle: Brourd's mod of Exclusion 4) |  | 16.5 | 15.7 |  |
| CCUCGACAUGAGGAUCACCCAUGUGAGGAUAUGACCUUAAAAGCGUGAGCAGUUUCUAUCAGAAGGCGCGUAGG [salish99_ex1_r4_071] (Eterna round: R97, puzzle: Exclusion 1) |  | 15.9 | 16 |  |
| CCUCUACAUGAGGAUCACCCAUGUGAGGAUAUCAAAGCCGAAGCAAAUCUCCGGCCCAUGAGAAGGUGCAUGGA [EX1 A.9] (Eterna round: R97, puzzle: Exclusion 1) |  | 87.4 | 19.5 |  |
